According to US20210139545A1 (IBA, published 2021):

Key:
[1] = target: T1, cytochrome b562 with C-terminally fused Strep-tagII (E. coli); assay: affinity chromatography, overloaded Sepharose column, washed, biotin elution
T1 construct: also called Cytb562-StrepII; Cytb562-StrepIII

[2] = target: T1, cytochrome b562 with C-terminally fused …; assay: affinity chromatography, capture from dilute solution (500 µg applied, 1 mg mutein)
[3] = target: T2, E. coli alkaline phosphatase Strep-tag®II fusion protein (E. coli, UniProt P00634 22-471 = phosphatase); assay: ELISA, mutein coated, BAP-StrepII titrated
T2 construct: mature; also called BAP-StrepII; BAP-StrepIII

[4] = target: T2, E. coli alkaline phosphatase …; assay: ELISA, second experiment, mutein coated, BAP-StrepII titrated
[5] = target: T1, cytochrome b562 with C-terminally fused …; assay: affinity chromatography, retention after overload; tied to m45 by Table 9 (308 % against 11 %)

| Binder | Retained Cytb562-StrepII [1] [µg] | Retained Cytb562-StrepII per immobilized mutein [1] [µg/µg] | Retained Cytb562-StrepII per immobilized mutein relative to mutein “1” [1] [%] | yield of Cytb562-StrepII applied [2] [%] | (Δ(A405-A595)/Δt)max [3] [mOD] | KD(mutein“1”)/KDmutein [3] | Kd [3] [nM] | (Δ(A405-A595)/Δt)max [4] [mOD] | Kd [4] [nM] | retained Cytb562-StrepII relative to wt streptavidin [5] [fold] |
| --- | --- | --- | --- | --- | --- | --- | --- | --- | --- | --- |
| mutein“1”-m41 (designed binder, Library 3 clone on mutein “1”) EAGITGTWYNQLGSTFIVTAGADGALTGTYVTARGNAESRYVLTGRYDSAPATDGSGTALGWTVAWKNNYRNAHSATTWSGQYVGGAEARINTQWLLTSGTTEAWYSTLVGHDTFTKVKPSAAS | 289 | 0.2 | 155 | 47 | 613 | 8.5 | 13 |  |  |  |
| mutein“1”-m302 (designed binder, Library 7 clone on mutein “1”, 118 and 119 deleted) EAGITGTWYNQLGSTFIVTAGADGALTGTYVTARGNAESRYVLTGRYDSAPATDGSGTALGWTVAWKNNYRNAHSATTWSGQYVGGAEARINTQWLLTSGTTEHWYSTLVGHDTFTKVKPSAAS | 350 | 0.28 | 221 | 63 | 726 | 22 | 5 |  |  |  |
| mutein“1”-m212 (designed binder, Library 6 clone on mutein “1”, 118 and 119 deleted) EAGITGTWYNQLGSTFIVTAGADGALTGTYVTARGNAESRYVLTGRYDSAPATDGSGTALGWTVAWKNNYRNAHSATTWSGQYVGGAEARINTQWLLTSGTTEHWLSTLVGHDTFTKVKPSAAS | 390 | 0.25 | 197 | 47 | 607 | 6.5 | 17 |  |  |  |
| mutein“1”-m207 (designed binder, Library 6 clone on mutein “1”, 118 and 119 deleted) EAGITGTWYNQLGSTFIVTAGADGALTGTYVTARGNAESRYVLTGRYDSAPATDGSGTALGWTVAWKNNYRNAHSATTWSGQYVGGAEARINTQWLLTSGTTETWLSTLVGHDTFTKVKPSAAS | 358 | 0.29 | 229 | 55 | 493 | 4.1 | 27 |  |  |  |
| mutein“1”-m301 (designed binder, Library 7 clone on mutein “1”, 118 and 119 deleted) EAGITGTWYNQLGSTFIVTAGADGALTGTYVTARGNAESRYVLTGRYDSAPATDGSGTALGWTVAWKNNYRNAHSATTWSGQYVGGAEARINTQWLLTSGTTEHWMSTLVGHDTFTKVKPSAAS | 400 | 0.28 | 225 | 57 | 725 | 11 | 10 |  |  |  |
| mutein m402 (designed binder, Library 1 clone) EAGITGTWYNQLGSTFIVTAGADGALTGTYACARGNAECRYVLTGRYDSAPATDGSGTALGWTVAWKNNYRNAHSATTWSGQYVGGAEARINTQWLLTSGTTEANAWKSTLVGHDTFTKVKPSAAS | 111 | 0.14 | 111 | 31 |  |  | 92 |  |  |  |
| mutein“1”-m23 (designed binder, Library 3 clone on mutein “1”) EAGITGTWYNQLGSTFIVTAGADGALTGTYVTARGNAESRYVLTGRYDSAPATDGSGTALGWTVAWKNNYRNAHSATTWSGQYVGGAEARINTQWLLTSGTTEYNAYASTLVGHDTFTKVKPSAAS | 479 | 0.31 | 245 | 60 | 968 | 9.2 | 12 | 644 | 13 |  |
| mutein“1”-m4 (designed binder, Library 3 clone on mutein “1”) EAGITGTWYNQLGSTFIVTAGADGALTGTYVTARGNAESRYVLTGRYDSAPATDGSGTALGWTVAWKNNYRNAHSATTWSGQYVGGAEARINTQWLLTSGTTEDNAGFSTLVGHDTFTKVKPSAAS | 564 | 0.35 | 280 | 64 | 716 | 12.2 | 9 | 518 | 12 |  |
| mutein“1”-m45 (designed binder, Library 3 clone on mutein “1”) EAGITGTWYNQLGSTFIVTAGADGALTGTYVTARGNAESRYVLTGRYDSAPATDGSGTALGWTVAWKNNYRNAHSATTWSGQYVGGAEARINTQWLLTSGTTEYNAGFSTLVGHDTFTKVKPSAAS | 472 | 0.39 | 308 | 67 | 566 | 6.1 | 18 |  |  | 28 |
| mutein“1”-m101 (designed binder, Library 5 clone on mutein “1”) EAGITGTWYNQLGSTFIVTAGADGALTGTYVTARGNAESRYVLTGRYDSAPATDGSGTALGWTVAWKNNYRNAHSATTWSGQYVGGAEARINTQWLLTSGTTEYNAFLSTLVGHDTFTKVKPSAAS |  |  |  |  | 589 | 7.9 | 14 |  |  |  |
| mutein“1”-m36 (designed binder, Library 3 clone on mutein “1”) EAGITGTWYNQLGSTFIVTAGADGALTGTYVTARGNAESRYVLTGRYDSAPATDGSGTALGWTVAWKNNYRNAHSATTWSGQYVGGAEARINTQWLLTSGTTEYNAFMSTLVGHDTFTKVKPSAAS | 429 | 0.32 | 254 | 61 | 945 | 9.2 | 12 |  |  |  |
| mutein m4001 (designed binder, Library 2 clone) EAGITGTWYNQLGSTFIVTAGADGALTGTYACGRGNAECRYVLTGRYDSAPATDGSGTALGWTVAWKNNYRNAHSATTWSGQYVGGAEARINTQWLLTSGTTEANAWKSTLVGHDTFTKVKPSAAS | 175 | 0.16 | 127 | 34 |  |  | 20 |  | 27 |  |
| mutein“1”-m111 (designed binder, Library 5 clone on mutein “1”) EAGITGTWYNQLGSTFIVTAGADGALTGTYVTARGNAESRYVLTGRYDSAPATDGSGTALGWTVAWKNNYRNAHSATTWSGQYVGGAEARINTQWLLTSGTTEYNALWSTLVGHDTFTKVKPSAAS | 318 | 0.31 | 246 | 67 | 492 | 8.5 | 13 |  |  |  |
